Test results reported in PMC7992989.

How the values were obtained:
[1] = target: CP12 from Thalassiosira pseudonana, recombinant, after His tag removal with thrombin (Thalassiosira pseudonana); assay: native MS; native ESI-MS, 5 µM CP12 without histidine tag, 200 mM ammonium acetate pH 8.0, source temperature 20 °C; dimer to monomers
[2] = target: recombinant histidine tagged CP12 from Thalassiosira pseudonana (Thalassiosira pseudonana); assay: SEC-SAXS; 50 µL of His-tagged CP12 at 11 mg/mL on Agilent Bio-SEC-3 300 Å, 15 °C, 30 mM Tris, 50 mM NaCl, 2 mM EDTA, 1 mM TCEP, pH 7.5; mass from the forward scattering intensity

stoichiometry N [1] | stoichiometry N [2] | Substance
2 |  | CP12 from Thalassiosira pseudonana, recombinant, after His tag removal with thrombin (natural protein)
 | 2 | recombinant histidine tagged CP12 from Thalassiosira pseudonana (natural protein)
